In the DeepSol protein solubility set:

Assay: soluble on expression in E. coli; label from the status in PepcDB or PDB records

Row | Sequence | soluble on expression in E. coli
1 | MGRRGMWYPLAAMKGVLEALHQGDYDTAIDLLTRKALFGREREAKEAWLLLAEVYALYGEEGLEKAHHALEEAYALGGLEYDPLYRSLLAELLALEGRPEREVLPLFLPSRDPRVRYHQAQALFYLGRLEEALEALEAGLPPHLAWRAEGLKGRILERLGRHGEAALAYERGAELALGLERYWLLLDAAAMWLEAGEGERALLALKEAEAAVGEEDPEDAATRHYLLARAHLLLGNPGLALEEIRKALALEEESGHKAYGTPLVEGQALLQLGRYEEAMASFREALARADAGERPHVLHEMGVAALDHGAYPEAEEHLRALVREEGYPYLAQAYADLAEALYRQGRYQEAEAAAREAVARGAVAAGELVLGHVAYDLLHLEEALEHYRKAAESAEEGSREWVGAQEMVVDTLAQLGYRFPEEMVRRGQAVLPYLHPADEWHAALTAYVERAQALLREGKRLN | soluble
2 | MAEKAENLPSSSAEASEEPSPQTGPNVNQKPSILVLGMAGSGKTTFVQRLTAFLHARKTPPYVINLDPAVSKVPYPVNVDIRDTVKYKEVMKEFGMGPNGAIMTCLNLMCTRFDKVIELINKRSSDFSVCLLDTPGQIEAFTWSASGSIITDSLASSHPTVVMYIVDSARATNPTTFMSNMLYACSILYRTKLPFIVVFNKADIVKPTFALKWMQDFERFDEALEDARSSYMNDLSRSLSLVLDEFYCGLKTVCVSSATGEGFEDVMTAIDESVEAYKKEYVPMYEKVLAEKKLLDEEERKKRDEETLKGKAVHDLNKVANPDEFLESELNSKIDRIHLGGVDEENEEDAELERS | not soluble
3 | MTTGNNDFYYSNKYEDDEFEYRHVHVTKDVSKLIPKNRLMSETEWRSLGIQQSPGWMHYMIHGPERHVLLFRRPLAATQKTGGNVRSGNAVGVR | not soluble
4 | MAHHHHHHMGTLEAGQQGPGSMSKLTVVASPLAPEAVGAYSQAIICNGMVYCSGQIGLDRKTGDFAGKTIEEQSKQVMTNLKYVLEEAGSSMDKVVKTTCLLADIKDFGVFNGIYAEAFGNHKPARACFAAAALPKGALVEVECIATL | soluble
5 | MKDVIEKRHIRAEVPIELTWDLSDLYESDKKWETALRVLTDDIKKLDAFKGQLHTSPTTLLHCLLLEEELLMKLTKLYSYANLKESTDRTNPVIQANSSKIAALWTKVHTALSFIHNEILSLEEGTIEKYLTKETKLEPFRKSLLDILQKRQYTLSPETEEALAALGEVHSSPYKIYGMTKLADMDFNSIQDEQGNELPVSFSLFESKYEFSPSVDIRRKAYSSFVSTLKRYKNTVATTYATEVKKQVTLSRLRKFESVTHMLLEPQNVPLEMYNNQLDIIYKELAPHMRRFADLKKKVLGLDQMLFCDLHAPLDPEFNPAITYEEAGKLIQDSLQVLGDEYSAIIKKGFKERWVDLADNVGKSTGAFCSSPYGSHPYILITWQNTMRGCFTLAHEFGHAGHFYLANKNQRIMNVRPSMYFVEAPSTMNELLLAQHLLATTDDKRMRRWVILQLLGTYYHNFVTHLLEGEYQRRVYSLAEEGEALTATTLTEIKTNVLSTFWGNSVEIDEGAGLTWMRQPHYYMGLYSYTYSAGLTASTAVAQMIKEEGQPAVDRWLDVLRAGGTMKPLELMKHAGVDMSKPDAIRKAVSYVGSLIDELERSYEE | not soluble
6 | MEPPKLLGVVLTTALLFHIALTAKQAVVSRKSKLCGNVECEEVLFKARVKRVMGINNDPSFLNLAENAIISVVAVKFSDRPDIMEGKLNGEGSNGFFYAGAIDIMPFAEFLRTAITDKKEMLMISQNPADIGDKRIVGFLHSETDLVRDFNAKNAQAAAENGLPAPEPIPIPEPAHTGHGHSHGGHGHSHGGHGHSHGHPAPTPAPTPAPKPIEEAPKPAEEPVKPADLEMDAEIERLIKEEEERMKNVAEQPPLVLQSLPETPEAQKLPEEPLEPVTPEPIPEAPVPIAQYIQEPTTTPAPLEAPAPVENAPNLPTPTFSVDDLMAQAARDALNSNSIVPDAPKVEEPEPAPTPAPAPAEDPVVTPAPEELTGVCYKDDCQGLQTPPPPAPPPPAPAVPEEAQAPTPAPEEAPEAQIPAETAQIPPENAVPEAPEEPAPTTTPPPISAGEAEFLKWEEARQKREAVAAAPYEDAQAHQFVASPPPHVSSGLIELIRSSLGLGNITDSSVLLVVNLTFVAASFLVYIIIRSLSSGGESDILDRQAHFDLMNKHKQLQLQLNAKITEIQNLQANGAAAQRPEQPNYEPELLALRQQLAHLQSELQTAHAQRQEFEIHYHQIRELAEQKDHQIAQLTEQANDYQERLEKSQSELQELARHVDSARAELMDSQTSDYGRQQELMEKQAELEQIYVKIDNLTAENRDLTDKIAQLQVSDSLELEELEELRNKNLELQEQVKQLKEELEKEKSVAGSGNSGGWSDIDDNEVVEAVQPIETTPISSENSENLKKFEAEIAELKASLEKTEKELTKYRNLYNEKLTAISDKENRSQIEMEHKLKNAESDLQEAKRRAEEIGAEKKELSDRLNEMLKNLNQSMQKSAENDKMLTQLREEAFAKEKQLLEHDSVLRKKDDKIRELDAEFKRVKMEYVKLETKSFHDVRKLNMDVEELKTQLSMAGGVTSSRSIPDRLVSPLQEPIWDEPEPALQRVVLPLDGYSSMRRRSTRRSQLPFGAESPSDQEKKQAAPSHRRRSRSHGRQPPSFHDPYSMNPYLPGSSDSSFMSTSQPQFLPLNRQHSRSGHLMSNSANGPYSSGGSNGGRSPPPEMPLLSAIPPPGARKPLGKRPDSAHHLGK | not soluble
7 | MSLKYKLLVLDVDGTLLNDAKEISKRTLAALLKVQQMGVRIVLASGRPTYGLMPLAKSLELGNYGGYILSYNGCQIINAQNGEILFERRINPEMLPYLEKKARKNNFALFTYHDDTIITDTPENEHIQNEARLNNLKVIKEEEFSVAIDFAPCKCMLVSDDEEALVSLEGHWKRRLNGALDVFRSEPYFLEVVPCAIDKANTLGALLEELDVKREEVIAIGDGVCDVTMIQLAGLGVAMGHSQDSVKVCADYVTASNEEDGVALAVEKAIIAEVRAAEIPLDQLNAQARHALMGNLGIQYTYADEDRVEATMPVDHRTRQPFGILHGGATLALGETVAGLGSMILCQPDEIVVGMQVSGNHISSAHEGDTVRAVATIVHKGRSSHVWNVDVFTSTNKLVSSIRVVNSVMKKREGHHHHHH | soluble
8 | MSNGNTDPVFDFEDALDQTEMAQLAVDELKKIPEVNTLFAERWLPAPFNLDDLAKLPEGTLGHVYAIEMKARGFDPYFYKKVPVVDDISYLKMLWRSTHDIYHVVAGFDTDGIGEIGLQAFVLAQTPIPISVMLVSFGMVMTSLYQPAKFQDLMAEIARGYSLGSHTPRKLIAQKWDQFWDVPVIEIRECLGMNTVKQRERALEHHHHHH | not soluble
9 | MGLTISSLFSRLFGKKQMRILMVGLDAAGKTTILYKLKLGEIVTTIPTIGFNVETVEYKNICFTVWDVGGQDKIRPLWRHYFQNTQGLIFVVDSNDRERIQEGAAVLEKMLLEDELQDAVLLLFANKQDLPNAMAISEMTDKLGLQSLRNRTWYVQATCATQGTGLYEGLDWLSHELSNVK | soluble
10 | YGKQRKASVIGAINTVSMNELKMPVAKLSSGLAGQLAGIVVMQRSGEPGAGADFWIRGINTFGAGNKPLVLVDGVERSMDLVDVEDIASFSILKDATATALYGVRGANGIVLITTKRGTES | not soluble
11 | MTVTSSAAIDIGGGGGGRRSDRLDSDRTSEDMSFIASPANESFQIGASFVDVQNESSGSIDTATATLHELNYTFGMPPVTEESENMPQNYETVVELLPGEERAPINKLTEFPIEGGSLFVTNFRIVVILKDKEVEEALRFLVFPLQDIEQIDLAIPAFIHLSLKIGRMFTICFKTAEDAALVHKILYTAFQRLNRPISSIYTSRPQDWTSKNTDNPMQSLNAFAWKFSEAVDELDRDGKLPSWLLRADSVAQEITHIDFNRLGMSEHFQISSVNENFEVCPTYPEKIIVPKGITDDDIRKGAPYRSIGRFPAVIWRCRKTRAVLMRSSQPQVGILSWRNPTDEKIIEEAVKASRIEGEEKKQFIIMDARGYTSAFANRARSGGFENTEYYQQAKLEFLGLPNIHAVRGSFNNVRTMLHNLGPNEQLLTSLQTTGWLLNLSNLLVNAANCADHLSKGHSVLVHCSDGWDRTTQVTTLAKIMLDEYYRTVKGFEELIRRDWIAFGHKLYDRQLVAFGNWGTSDERSPVFLQFLEAVRHLQREQPTLFQFTHAYLIKLAKHAYSGLFGSFLFNSHKERREAMEKCKGTLVDIWRFIGPHNEEYVNQSFDEHYTGAVKPVNVSVINLRVWHEVFADEEEHYTQIFSPKEERPLSGCTTPMNTSTSTNLVKSKSSESINSLNVDGSAKESSQQHPTCSTTPSDNTNSLPMSTSFIQQSLYQPKVRGVAAIDRDGVIRFEDDEQAMLRKKNKLRAEEIRRKDEKIEELRRRAVLDTNKVSPGQRQSYSESDVETTGTLERVMSDVSMVDPVNELPHFKPNTTWEGESGHCAYCKKEFNKLSVYVEDRQHHCRNCGRVVCEDCSKNRFSVIEEGKSVQKRACDSCYDSMHETDLKLSSSSTTTTSSSTKIENDSNVPGLDNNSDNVSENVSENAIPDIIVEEKEAEDPIKEAESPSKETKCPKTLRNFISFSPKSSMRKNKVHSRDPLKSIDEGSSSQQAESDDVLDVNEQPL | not soluble
12 | MGSDKIHHHHHHMSNHNWTRRDFIKGVGATTAGITLSACNPSGDRSATGLTQEALTIKPVIKSSDLEKPDLIVGYVPVNDCAPFAIAWKKGFFRKYGLNVQLNREASWATSRDGLIFGRLDAAPVVSGAVTNARIGAEGARHAPLCAAMTIHRHGNAMTMNKAMWDFGLRPWYEYQEKYGDGALEAFGRDFRGYFEKQPPENKVWAVVLSSAIYEYFVRYVSAAAGVDPLKEFRVIIVPPPQMVTNVRIGAMQAYMVAEPWNTRAITGNEGIGFTFAQGKEVWLGHPDRLLGVMESFIDQYPKTYRSLVKAMIEACQYCSKPENRQEVAELITDRSFTGARPKNKNLPITKLTAPGIIGSYNYGGFDGKDRTIPAADTTIFYDIPDNLPKQPAEHSTFLWRSRSLWLMTQAARWGQIKEFPKNAEQLAEKGWRTDLYRQIAAEMGIQCPQDDYKVEPPEVFIDKKGFDPSDPVGYLNSFAIRANAPTRFFLS | not soluble
13 | MGSDKIHHHHHHMLTASSITLQFASKPLFENVNVKFGDGNRYGLIGANGSGKSTFMKILAGELEPTAGNVSLDPGERMAWLRQDQFGYEDQRVLDVVMQGHVEMWRVMQEKDAIYMNPEASEEDYLRAAELEGKFGELGGYDAEARAGELLLGVGIPTEQHQGTMSQIAPGFKLRVLLAQALFSKPDILLLDEPTNNLDINTIRWLEQVLNESNATIVVISHDRHFLNQVCTHMADLDYGTIKVWPGNYDDYMLASSEAKARQAAANARAKDKVAELQEFVRRFSANKSKARQATSRMKMIDKIKIEDFKPSSRQNPYIRFEPEKALHRRALEVENLKFGYDAEPLFTNLGFSLEAGEKLAVIGGNGVGKSTLMKLLMGELTPAYGEIRWSENANVGYFSQDHVADFDMDLNLTDWMHQWTQAGDDEQVLRGILGRLLFSGDDVKKSVRVLSGGEKGRMLYGKLMLGRHNVLVMDEPTNHMDMESIESLNLALELFKGTLIFVSHDRQFVSSLATRILEITPQGVEFYMGNYDEYLHSKGLE | not soluble
14 | MGSDKIHHHHHHMKTTLAERLKTARTAQGLSQKALGDMIGVSQAAIQKIEVGKASQTTKIVELSNALHIRPEWLANGGGPMHSDRVVRSLQESSIPPTSKWGTVSAWDNTTKLSEDEVEVPFLKDIEFACGDGRIQSEDYNGFKLRFSKATLRKVGANTDGSGVLCFPAAGDSMEPIIPDGTTVAVDTNNKRIIDGKLYAIAQEGSGNDKLKRIKQLYRKPGGLLVIHSFNRDADEEAYESEVEIIGRVFWYSVLL | not soluble
